No end group written: not given here.

The source of these data is patent publication US20220073963A1, “COMPOSITIONS AND METHODS FOR DETECTING AND TREATING TYPE 1 DIABETES AND OTHER AUTOIMMUNE DISEASES” (THE JOHNS HOPKINS UNIVERSITY, priority 2018, published 2022).

One experiment deals with HLA-DQ8 monomers. Briefly: Gentle SDS-PAGE assay of peptide binding to DQ8. Particulars: 100 μM peptide, 0.5 μM HLA-DQ8 monomers, 37° C., 72 h, pH 5.5. Also noted: species or system human. The protocol:
Analysis of x-Id peptide binding to DQ8 using gentle SDS-PAGE assay. Gentle SDS-PAGE was used to assess formation of stable complexes between peptides and HLA-DQ8 molecules as previously described (Kim et al., 2013; Sadegh-Nasseri and Germain, 1991). Briefly, 0.5 μM of HLA-DQ8 monomers (provided by NIH tetramer core facility) were treated with thrombin to cleave and remove CLIP peptide. […] Reactions were neutralized, mixed with equal volumes of SDS-PAGE sample buffer containing 0.1% SDS (final concentration) and placed for 15 min at room temperature and run on 10% PAGE gels and silver-stained using a standard protocol.

Experiment [1] concerns CD4 T cells. Briefly: CFSE proliferation assay with soluble peptides. To be noted: soluble peptide, PBMCs from T1D and HC subjects, 7 days. It is filed as cell-based, human. The protocol:
FIG. 14A-14B. […] Freshly isolated CFSE-labelled PBMCs from T1D and HC subjects were cultured in the presence or absence of indicated peptides for 7 days. Samples were stained, acquired and analyzed by FlowJo. CD4 T cells were gated and percentage of divided (CFSElow T cells) were determined. […] All peptides induced significant proliferation from diabetogenic subjects compared to HCs. n=4 per subject group, *p<0.05 by Two-way ANOVA with Sidak's multiple comparisons test. […] (FIG. 14B) Overlays show upregulation of CD69 by gated CFSElow T cells (red lines) versus […] non-proliferating (green) CD4 T cells from three subjects and three independent experiments. Numbers indicate percentages (Mean±SEM) of CFSElow CD4 T cells. CFSE proliferation assay. Freshly isolated PBMCs were washed twice with warm (37° C.) 1×PBS to remove serum that affect staining and the cells were resuspended in warm (37° C.) 1×PBS at a density of 1.5-2.0×10^6 cells/ml. Cells were labeled with 1 μM CFSE (eBioscience) for 1-2 min at 37° C. with continuous vortexing. The labeling reaction was quenched by adding chilled complete culture media. […] After 7 days of incubation, cultures were stained as indicated in FIG. legends and proliferation assessed by determining frequency of CFSElow CD4 T cells.

Experiment [2] concerns CD4 T cells. Briefly: CFSE proliferation assay with immobilized peptide-loaded DQ8 complexes. It is filed as cell-based, human. Particulars: PBMCs from DQ8+ T1D subjects, 7 days. The method, then:
CFSE proliferation assay. Freshly isolated PBMCs were washed twice with warm (37° C.) 1×PBS to remove serum that affect staining and the cells were resuspended in warm (37° C.) 1×PBS at a density of 1.5-2.0×10^6 cells/ml. Cells were labeled with 1 μM CFSE (eBioscience) for 1-2 min at 37° C. with continuous vortexing. The labeling reaction was quenched by adding chilled complete culture media. CFSE-labeled cells were washed in 1×PBS, resuspended in complete media, and plated into 24-well tissue culture plates (1.5-2.0×10^6 cells/well in 1 mL complete culture medium). […] Alternatively, in a separate experiment, to evaluate the mAb-specific proliferative response, purified mAbR and mAbN (described later in the method) concentration of 2.5 and 5 ug, immobilized into the wells of 24-well plates, and used to stimulate CFSE-labeled PBMCs. CFSE labelled cells without stimulation and with CD3-28 stimulation were taken as specific negative and positive controls respectively. After 7 days of incubation, cultures were stained as indicated in FIG. legends and proliferation assessed by determining frequency of CFSElow CD4 T cells.

In experiment [3] the target is CD4 T cells from T1D subjects (antigen receptors not identified). Briefly: flow cytometry, tetramer staining of CD4 T cells; unstimulated cultures. For orientation: In flow cytometry, cells or beads pass a laser one at a time.
Experiment [4] shares this target. Briefly: flow cytometry, tetramer staining of CD4 T cells; mimotope-stimulated cultures, NO AB.
The target is the same in experiment [5]. Briefly: flow cytometry, tetramer staining of CD4 T cells; x-Id-stimulated cultures, NO AB.
Experiment [6] has the same target. Briefly: flow cytometry, tetramer staining of CD4 T cells; mimotope-stimulated cultures, AB BLOCKADE (cells preincubated with x-mAbR).
Experiment [7] has the same target. Briefly: flow cytometry, tetramer staining of CD4 T cells; x-Id-stimulated cultures, AB BLOCKADE (cells preincubated with x-mAbR).
For experiment [8] the following is noted: Wang et al., 2018; cited from earlier work.

For the molecule “CARQEDTAMVYYFDYW (listed as Homo sapiens) [x-Id]”, in the experiment with HLA-DQ8 monomers, the “formation of SDS-stable complexes with soluble DQ8” value (shortened to “formation of SDS-stable complexes”) is on record as “forming SDS-stable complexes”. The “proliferation of CD4 T cells (CFSElow)” value in the experiment with CD4 T cells [1] was “stimulates CD4 T cells from T1D, but not HC, subjects”.

As for “CARQRFWSGPLFDYW [h-Id, CDR3 peptide of the IGVH04-b+ IgD+ clonotype from HC #1]”, in the experiment on HLA-DQ8 monomers, the “formation of SDS-stable complexes” value is given as “did not form detectable DQ8 complexes”. Moreover, the “proliferation of CD4 T cells (CFSElow)” value in the experiment with CD4 T cells [1] is “did not elicit proliferation of CD4 T cells from either T1D or HCs”. Moreover, in the experiment on CD4 T cells [2], the “stimulation of CD4 T cells (CFSE proliferation and CD69 upregulation)” value was “no significant responses”.

Turning to CLIP-TET (peptide-MHC), the tetramer+ among CD4 T cells worked out at 0.07% in experiment [3]; 0.09% in [4]; 0.1% in experiment [5]; 0.08% in experiment [6]; 0.08% in experiment [7].

Consider “SHLVEALYLVCGERG (listed as Homo sapiens) [native insulin]”, for which the “formation of SDS-stable complexes” value in the experiment on HLA-DQ8 monomers is reported as “did not form detectable DQ8 complexes”. In addition, the “stimulation of CD4 T cells (CFSE proliferation and CD69 upregulation)” value in the experiment with CD4 T cells [2] is on record as “no significant responses”.

Regarding “SHLVEELYLVAGEEG (listed as Homo sapiens) [superagonist]”, in [8], the “potency relative to native insulin B:9-23” value was “about 1000 fold”.

For “TP-Id: truncated version of x-Id that lacked cysteine and tryptophan at the terminals (ARQEDTAMVYYFDY)”, the “formation of SDS-stable complexes” value in the experiment with HLA-DQ8 monomers is recorded as “forming SDS-stable complexes”.

Take CARQEDTAMVYYFDYW (peptide-MHC, part only; not given: HLA-DQ8 alpha and beta chains, human, part only, also: loaded in biotinylated HLA-DQ8 monomers tetramerized with PE-streptavidin) [HLA-DQ8 tetramer loaded with x-Id peptide]: the tetramer+ among CD4 T cells in [3] was found to be 0.56%; in experiment [4], 1.07%; in [5], 1.03%; in experiment [6], 0.36%; in [7], 0.35%.
